# Assay results published in patent US20090311243A1.
# Key:
# human Fzd8 (human) = human Fzd8 (human) (UniProt Q9H461); experiment: cell-based or functional assay
# [1] = molecular target: recombinant Wnt3a protein (R&D systems); experiment: cell-based or functional assay
# Sequence of UniProt Q9H461 (Q9H461 28-694): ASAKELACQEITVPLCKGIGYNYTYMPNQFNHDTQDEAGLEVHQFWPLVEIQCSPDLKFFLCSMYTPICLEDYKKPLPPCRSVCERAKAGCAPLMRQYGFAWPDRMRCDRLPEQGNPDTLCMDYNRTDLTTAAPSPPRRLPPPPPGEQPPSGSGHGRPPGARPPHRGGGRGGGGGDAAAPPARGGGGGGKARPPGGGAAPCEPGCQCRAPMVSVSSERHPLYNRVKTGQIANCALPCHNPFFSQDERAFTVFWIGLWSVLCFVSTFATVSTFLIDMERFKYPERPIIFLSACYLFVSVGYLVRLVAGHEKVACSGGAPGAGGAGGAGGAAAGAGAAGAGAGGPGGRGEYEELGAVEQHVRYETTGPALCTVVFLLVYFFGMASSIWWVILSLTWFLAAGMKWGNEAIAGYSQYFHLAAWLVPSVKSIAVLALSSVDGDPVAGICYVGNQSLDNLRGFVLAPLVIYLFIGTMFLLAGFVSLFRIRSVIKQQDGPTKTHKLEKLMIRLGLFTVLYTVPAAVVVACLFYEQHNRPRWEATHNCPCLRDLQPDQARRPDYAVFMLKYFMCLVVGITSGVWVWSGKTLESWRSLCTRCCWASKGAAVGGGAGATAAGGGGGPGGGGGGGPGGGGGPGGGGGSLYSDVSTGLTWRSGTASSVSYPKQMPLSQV
# Sequence of recombinant Wnt3a protein (R&D systems) (P27467 19-352): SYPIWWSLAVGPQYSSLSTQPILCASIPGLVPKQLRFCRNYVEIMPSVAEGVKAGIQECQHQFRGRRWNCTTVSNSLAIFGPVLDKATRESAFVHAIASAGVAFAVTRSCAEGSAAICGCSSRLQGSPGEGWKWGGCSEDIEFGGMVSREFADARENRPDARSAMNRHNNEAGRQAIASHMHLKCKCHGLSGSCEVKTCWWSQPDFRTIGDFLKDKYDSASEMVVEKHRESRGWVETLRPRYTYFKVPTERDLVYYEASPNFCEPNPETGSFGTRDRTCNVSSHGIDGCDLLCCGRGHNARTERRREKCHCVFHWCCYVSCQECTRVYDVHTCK
substance,measurement,setting,value
human Wnt8a (from UniProt Q9H1J5 25-351) (ligand),"Wnt8a mediated SOX9 mRNA reduction in primary chondrocytes, rescue by Fzd8 siRNA (quantitative PCR)",human Fzd8 (human),52%
murine Fzd8 CRD Fc fusion (R&D systems) (from UniProt Q61091 28-173),"ND50, inhibition of Wnt3a-induced TCF reporter luciferase activity in Fzd8:CHOK1 cells",[1],0.027 µg/mL
recombinant Wnt3a protein (R&D systems) (ligand),"TCF/LEF reporter (TOPFlash) luciferase activity, normalized to Renilla luciferase",human Fzd8 (human),10.4 fold
